The target of series [1] is T1, SPO11 (beta isoform);TOP6BL (Mus musculus;Mus musculus, UniProt Q9WTK8;J3QMY9 1-396;1-579, |).
T1 sequence 1: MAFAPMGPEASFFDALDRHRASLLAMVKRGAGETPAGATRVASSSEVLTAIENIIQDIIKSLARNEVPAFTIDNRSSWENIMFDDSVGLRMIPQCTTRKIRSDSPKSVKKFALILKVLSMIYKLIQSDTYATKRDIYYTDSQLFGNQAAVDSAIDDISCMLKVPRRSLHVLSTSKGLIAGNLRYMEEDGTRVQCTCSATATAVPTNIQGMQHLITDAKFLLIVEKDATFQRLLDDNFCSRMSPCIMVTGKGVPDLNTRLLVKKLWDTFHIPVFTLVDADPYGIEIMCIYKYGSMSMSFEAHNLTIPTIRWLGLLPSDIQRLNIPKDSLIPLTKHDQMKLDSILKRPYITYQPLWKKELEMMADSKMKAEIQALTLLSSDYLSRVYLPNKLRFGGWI
T1 sequence 2: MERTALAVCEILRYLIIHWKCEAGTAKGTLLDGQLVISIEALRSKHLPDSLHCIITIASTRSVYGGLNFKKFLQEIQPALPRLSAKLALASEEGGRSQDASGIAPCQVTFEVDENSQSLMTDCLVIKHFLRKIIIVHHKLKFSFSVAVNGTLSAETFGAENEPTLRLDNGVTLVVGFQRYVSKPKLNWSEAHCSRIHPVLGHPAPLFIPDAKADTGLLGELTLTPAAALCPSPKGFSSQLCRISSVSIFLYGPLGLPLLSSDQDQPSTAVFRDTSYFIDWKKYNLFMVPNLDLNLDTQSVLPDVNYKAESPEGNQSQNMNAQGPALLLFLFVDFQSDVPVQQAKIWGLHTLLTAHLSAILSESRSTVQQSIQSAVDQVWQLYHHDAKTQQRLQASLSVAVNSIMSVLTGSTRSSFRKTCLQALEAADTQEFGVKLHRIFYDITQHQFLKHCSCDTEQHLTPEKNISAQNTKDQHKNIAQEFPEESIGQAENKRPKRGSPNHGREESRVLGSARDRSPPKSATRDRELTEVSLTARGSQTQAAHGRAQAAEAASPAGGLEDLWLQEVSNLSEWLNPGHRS
Nature of the series: EMSA; double-end binding disfavoured at 0.8 nM, restored at higher protein; Hairpin EMSA: 25 mM Tris-HCl pH 7.5, 100 mM NaCl, 5 mM MgCl2, 7.5% glycerol, 2 mM DTT, 1 mg/ml BSA, 0.1 nM DNA, 30 min 30 C; cleavage-oligo EMSA: 25 mM HEPES-NaOH pH 7.5, 50 mM NaCl, 5 mM MgCl2, 7.5% glycerol, 1 mg/ml BSA, 2 mM DTT, 4 C. Particulars: protein: recombinant;recombinant; tags: N-terminal Flag-TEV;untagged; copies: 1;1; label: 5'-32P; 5' overhang 2 nt (TA) at both ends. In general terms: In EMSA bound probe runs differently from free probe, usually more slowly.

The target in series [2] is T2, Flag-tagged mouse SPO11 (β splicing isoform), wild type (mouse, UniProt Q9WTK8-1 1-396).
T2 construct: mouse SPO11, β splicing isoform (includes exon 2), UniProt Q9WTK8-1, full-length optimized coding DNA; A TEV cleavage site lies between the Flag tag and SPO11; no cleavage is described; also called Flag–SPO11; mSPO11; not shown: Flag, N-terminal, kept
T2 sequence (looked up): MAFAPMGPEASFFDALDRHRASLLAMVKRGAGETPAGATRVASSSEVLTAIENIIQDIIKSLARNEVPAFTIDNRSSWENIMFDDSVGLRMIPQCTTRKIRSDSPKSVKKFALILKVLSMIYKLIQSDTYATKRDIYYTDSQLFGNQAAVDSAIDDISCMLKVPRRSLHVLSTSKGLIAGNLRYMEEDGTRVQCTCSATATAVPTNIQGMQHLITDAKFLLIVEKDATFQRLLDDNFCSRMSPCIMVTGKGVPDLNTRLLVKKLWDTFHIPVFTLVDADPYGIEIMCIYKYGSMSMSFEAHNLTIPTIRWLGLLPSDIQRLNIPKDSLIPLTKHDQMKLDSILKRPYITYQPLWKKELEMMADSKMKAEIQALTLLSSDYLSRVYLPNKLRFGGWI
Nature of the series: SEC; proteins co-expressed in FreeStyle 293-F cells; lysate (25 mM HEPES-NaOH pH 7.5, 500 mM NaCl) on anti-Flag M2 affinity gel, eluted with Flag peptide, then Superdex 200 Increase 10/300 GL; fractions on Coomassie-stained SDS-PAGE. Particulars: partners not purified. On the technique in general: In gel filtration, larger molecules generally elute earlier.

Series [3] has as its target T1, SPO11 (beta isoform);TOP6BL. The series can be described thus: EMSA; 5 mM Mg2+, 50 mM NaCl, 4 C; apparent Kd for first monomer; doubly bound complexes formed; Hairpin EMSA: 25 mM Tris-HCl pH 7.5, 100 mM NaCl, 5 mM MgCl2, 7.5% glycerol, 2 mM DTT, 1 mg/ml BSA, 0.1 nM DNA, 30 min 30 C; cleavage-oligo EMSA: 25 mM HEPES-NaOH pH 7.5, 50 mM NaCl, 5 mM MgCl2, 7.5% glycerol, 1 mg/ml BSA, 2 mM DTT, 4 C. Particulars: protein: recombinant;recombinant; tags: N-terminal Flag-TEV;untagged; copies: 1;1; label: 32P (5' labelled, then ligated); closed dumbbell, 44 bp duplex with two A4 hairpin loops.

Series [4] shares this target. The series can be described thus: EMSA; double-end binding; Hairpin EMSA: 25 mM Tris-HCl pH 7.5, 100 mM NaCl, 5 mM MgCl2, 7.5% glycerol, 2 mM DTT, 1 mg/ml BSA, 0.1 nM DNA, 30 min 30 C; cleavage-oligo EMSA: 25 mM HEPES-NaOH pH 7.5, 50 mM NaCl, 5 mM MgCl2, 7.5% glycerol, 1 mg/ml BSA, 2 mM DTT, 4 C. The following applies: protein: recombinant;recombinant; tags: N-terminal Flag-TEV;untagged; copies: 1;1; label: 5'-32P; 5' overhang 2 nt (TA) at both ends.

The record followed here is PMC11922745, “Reconstitution of SPO11-dependent double-strand break formation” (Nature, 2024).

The term stoichiometry N denotes a count of units in the complex or per binding partner.

B1: 25 bp double-overhang duplex (dsDNA)
DNA 1: TAGCAATGTAATCGTCTATGACGTTAG
DNA 2: TACTAACGTCATAGACGATTACATTGC
In the case of B1, the binding result in series [1] is “binds”.

B2: 24 bp double-overhang duplex (dsDNA)
DNA 1: TAGCAATGTAATCGTCTATGACGTTA
DNA 2: TATAACGTCATAGACGATTACATTGC
As for B2, the binding result in series [1] is reported as “binds”.

B3: mouse TOP6BL, untagged (natural protein, UniProt J3QMY9-1 1-579, looked up)
chain: MERTALAVCEILRYLIIHWKCEAGTAKGTLLDGQLVISIEALRSKHLPDSLHCIITIASTRSVYGGLNFKKFLQEIQPALPRLSAKLALASEEGGRSQDASGIAPCQVTFEVDENSQSLMTDCLVIKHFLRKIIIVHHKLKFSFSVAVNGTLSAETFGAENEPTLRLDNGVTLVVGFQRYVSKPKLNWSEAHCSRIHPVLGHPAPLFIPDAKADTGLLGELTLTPAAALCPSPKGFSSQLCRISSVSIFLYGPLGLPLLSSDQDQPSTAVFRDTSYFIDWKKYNLFMVPNLDLNLDTQSVLPDVNYKAESPEGNQSQNMNAQGPALLLFLFVDFQSDVPVQQAKIWGLHTLLTAHLSAILSESRSTVQQSIQSAVDQVWQLYHHDAKTQQRLQASLSVAVNSIMSVLTGSTRSSFRKTCLQALEAADTQEFGVKLHRIFYDITQHQFLKHCSCDTEQHLTPEKNISAQNTKDQHKNIAQEFPEESIGQAENKRPKRGSPNHGREESRVLGSARDRSPPKSATRDRELTEVSLTARGSQTQAAHGRAQAAEAASPAGGLEDLWLQEVSNLSEWLNPGHRS
notes: mouse TOP6BL, UniProt J3QMY9-1, untagged, optimized coding DNA
As to B3, the “stoichiometry N” value in series [2] is 1.

B4: oligonucleotide cleavage substrate (44 bp, A4 loops at both ends) (structured_DNA)
DNA: CGGTTCAAAAGAACCGGAGCTGAATGAAGCCATACCAAACGACGAGCGTGACACAAAAGTGTCACGCTCGTCGTTTGGTATGGCTTCATTCAGCTC
modifications: covalently closed circle (ligated)
Consider B4, for which, in series [3], the Kd stood at 1.8 nM.

B5: 28 bp double-overhang duplex (dsDNA)
DNA 1: TAGCAATGTAATCGTCTATGACGTTAGCGC
DNA 2: TAGCGCTAACGTCATAGACGATTACATTGC
Regarding B5, the binding result in series [4] is recorded as “binds”.
